Data: the Human Domainome abundance scans (Beltran et al. 2025)
± gives the uncertainty stated by the source.

Assay: abundance fitness (aPCA) (normalised: wild type 0, dead -1); higher = more abundant; growth selection in yeast, the domain comes from the species named
Conditions: Homo sapiens
“NEDD4-like E3 ubiquitin-protein ligase WWP2 E443G, O00308” gave an abundance fitness of -0.091 ± 0.038.
With “NEDD4-like E3 ubiquitin-protein ligase WWP2 P477C, O00308” the abundance fitness was -0.084 ± 0.066.
Work on “NEDD4-like E3 ubiquitin-protein ligase WWP2 T467S, O00308” yielded an abundance fitness of -0.136 ± 0.056.
For “NEDD4-like E3 ubiquitin-protein ligase WWP2 D464N, O00308”, the abundance fitness was -0.138 ± 0.073.
Substance “NEDD4-like E3 ubiquitin-protein ligase WWP2 M452G, O00308” has an abundance fitness of -0.197 ± 0.051.
For “NEDD4-like E3 ubiquitin-protein ligase WWP2 Q442K, O00308”, the abundance fitness was 0.195 ± 0.069.
Substance “NEDD4-like E3 ubiquitin-protein ligase WWP2 G449S, O00308” has an abundance fitness of -0.17 ± 0.029.
With “NEDD4-like E3 ubiquitin-protein ligase WWP2 R468C, O00308” the abundance fitness was -0.184 ± 0.06.
For “NEDD4-like E3 ubiquitin-protein ligase WWP2 V463A, O00308”, the abundance fitness was -0.136 ± 0.036.
In the case of “NEDD4-like E3 ubiquitin-protein ligase WWP2 G489R, O00308”, the abundance fitness is reported as -0.035 ± 0.036.
“Transcription factor SOX-11 D92N, P35716” showed an abundance fitness of -0.18 ± 0.054.
Work on “NEDD4-like E3 ubiquitin-protein ligase WWP2 K484H, O00308” yielded an abundance fitness of -0.192 ± 0.081.
“NEDD4-like E3 ubiquitin-protein ligase WWP2 S487N, O00308” showed an abundance fitness of -0.034 ± 0.04.
For “NEDD4-like E3 ubiquitin-protein ligase WWP2 D464Y, O00308”, the abundance fitness was -0.693 ± 0.12.
For “NEDD4-like E3 ubiquitin-protein ligase WWP2 P447H, O00308”, the abundance fitness was -0.381 ± 0.075.
“NEDD4-like E3 ubiquitin-protein ligase WWP2 P488V, O00308” showed an abundance fitness of -0.037 ± 0.042.
“NEDD4-like E3 ubiquitin-protein ligase WWP2 N466R, O00308” gave an abundance fitness of -0.164 ± 0.043.
With “NEDD4-like E3 ubiquitin-protein ligase WWP2 S456K, O00308” the abundance fitness was -0.039 ± 0.054.
For “NEDD4-like E3 ubiquitin-protein ligase WWP2 D474I, O00308”, the abundance fitness was -0.069 ± 0.092.
With “NEDD4-like E3 ubiquitin-protein ligase WWP2 P475C, O00308” the abundance fitness was -1.06 ± 0.16.
In the case of “Transcription factor SOX-11 L90M, P35716”, the abundance fitness is reported as 0.343 ± 0.13.
Substance “NEDD4-like E3 ubiquitin-protein ligase WWP2 K484S, O00308” has an abundance fitness of -0.007 ± 0.037.
With “NEDD4-like E3 ubiquitin-protein ligase WWP2 T483M, O00308” the abundance fitness was -0.073 ± 0.055.
With “NEDD4-like E3 ubiquitin-protein ligase WWP2 K453W, O00308” the abundance fitness was -0.013 ± 0.059.
In the case of “NEDD4-like E3 ubiquitin-protein ligase WWP2 R476G, O00308”, the abundance fitness is reported as -0.206 ± 0.051.
In the case of “NEDD4-like E3 ubiquitin-protein ligase WWP2 M452C, O00308”, the abundance fitness is reported as 0.009 ± 0.055.
For “NEDD4-like E3 ubiquitin-protein ligase WWP2 H465V, O00308”, the abundance fitness was -0.357 ± 0.05.
Work on “NEDD4-like E3 ubiquitin-protein ligase WWP2 F462C, O00308” yielded an abundance fitness of -0.88 ± 0.054.
For “NEDD4-like E3 ubiquitin-protein ligase WWP2 T470R, O00308”, the abundance fitness was -0.446 ± 0.044.
“NEDD4-like E3 ubiquitin-protein ligase WWP2 R468K, O00308” gave an abundance fitness of -0.071 ± 0.071.
“NEDD4-like E3 ubiquitin-protein ligase WWP2 Y461D, O00308” gave an abundance fitness of -1.1 ± 0.15.
With “NEDD4-like E3 ubiquitin-protein ligase WWP2 P488W, O00308” the abundance fitness was -0.144 ± 0.048.
In the case of “NEDD4-like E3 ubiquitin-protein ligase WWP2 E480F, O00308”, the abundance fitness is reported as -0.239 ± 0.062.
Substance “NEDD4-like E3 ubiquitin-protein ligase WWP2 P448S, O00308” has an abundance fitness of -0.001 ± 0.037.
For “NEDD4-like E3 ubiquitin-protein ligase WWP2 F479K, O00308”, the abundance fitness was -0.015 ± 0.051.
Work on “NEDD4-like E3 ubiquitin-protein ligase WWP2 G486C, O00308” yielded an abundance fitness of -0.023 ± 0.056.
In the case of “NEDD4-like E3 ubiquitin-protein ligase WWP2 P488K, O00308”, the abundance fitness is reported as -0.04 ± 0.053.
Work on “NEDD4-like E3 ubiquitin-protein ligase WWP2 S456A, O00308” yielded an abundance fitness of -0.066 ± 0.048.
In the case of “NEDD4-like E3 ubiquitin-protein ligase WWP2 H465M, O00308”, the abundance fitness is reported as -0.357 ± 0.072.
Work on “NEDD4-like E3 ubiquitin-protein ligase WWP2 P444R, O00308” yielded an abundance fitness of 0.083 ± 0.041.
Work on “NEDD4-like E3 ubiquitin-protein ligase WWP2 F479G, O00308” yielded an abundance fitness of 0.017 ± 0.04.
With “NEDD4-like E3 ubiquitin-protein ligase WWP2 Y491F, O00308” the abundance fitness was 0.035 ± 0.07.
Substance “NEDD4-like E3 ubiquitin-protein ligase WWP2 P475R, O00308” has an abundance fitness of -0.933 ± 0.041.
“NEDD4-like E3 ubiquitin-protein ligase WWP2 V463P, O00308” gave an abundance fitness of -1.29 ± 0.47.
For “NEDD4-like E3 ubiquitin-protein ligase WWP2 E480T, O00308”, the abundance fitness was -0.119 ± 0.062.
Work on “NEDD4-like E3 ubiquitin-protein ligase WWP2 F462R, O00308” yielded an abundance fitness of -0.851 ± 0.046.
With “NEDD4-like E3 ubiquitin-protein ligase WWP2 P448M, O00308” the abundance fitness was 0.088 ± 0.068.
With “NEDD4-like E3 ubiquitin-protein ligase WWP2 G458D, O00308” the abundance fitness was -0.343 ± 0.079.
In the case of “NEDD4-like E3 ubiquitin-protein ligase WWP2 V463G, O00308”, the abundance fitness is reported as -0.972 ± 0.039.
“NEDD4-like E3 ubiquitin-protein ligase WWP2 T471M, O00308” gave an abundance fitness of -0.798 ± 0.094.
For “NEDD4-like E3 ubiquitin-protein ligase WWP2 F472C, O00308”, the abundance fitness was -0.48 ± 0.067.
For “NEDD4-like E3 ubiquitin-protein ligase WWP2 T483D, O00308”, the abundance fitness was -0.039 ± 0.06.
Substance “NEDD4-like E3 ubiquitin-protein ligase WWP2 V463R, O00308” has an abundance fitness of -0.352 ± 0.038.
Work on “Transcription factor SOX-11 M68L, P35716” yielded an abundance fitness of 0.093 ± 0.059.
For “NEDD4-like E3 ubiquitin-protein ligase WWP2 P447M, O00308”, the abundance fitness was -0.203 ± 0.045.
For “NEDD4-like E3 ubiquitin-protein ligase WWP2 G489W, O00308”, the abundance fitness was -0.163 ± 0.057.
In the case of “NEDD4-like E3 ubiquitin-protein ligase WWP2 N466Q, O00308”, the abundance fitness is reported as -0.06 ± 0.068.
With “NEDD4-like E3 ubiquitin-protein ligase WWP2 Q442A, O00308” the abundance fitness was -0.07 ± 0.035.
Substance “NEDD4-like E3 ubiquitin-protein ligase WWP2 H465P, O00308” has an abundance fitness of -0.556 ± 0.088.
Substance “NEDD4-like E3 ubiquitin-protein ligase WWP2 E480S, O00308” has an abundance fitness of -0.15 ± 0.053.
Work on “NEDD4-like E3 ubiquitin-protein ligase WWP2 V463L, O00308” yielded an abundance fitness of -0.041 ± 0.035.
Substance “NEDD4-like E3 ubiquitin-protein ligase WWP2 Y491D, O00308” has an abundance fitness of 0.104 ± 0.074.
For “NEDD4-like E3 ubiquitin-protein ligase WWP2 G458L, O00308”, the abundance fitness was -0.283 ± 0.041.
With “NEDD4-like E3 ubiquitin-protein ligase WWP2 M452K, O00308” the abundance fitness was -0.36 ± 0.11.
“NEDD4-like E3 ubiquitin-protein ligase WWP2 Y454L, O00308” gave an abundance fitness of -0.035 ± 0.031.
Work on “NEDD4-like E3 ubiquitin-protein ligase WWP2 P447K, O00308” yielded an abundance fitness of -0.17 ± 0.052.
“NEDD4-like E3 ubiquitin-protein ligase WWP2 G458S, O00308” gave an abundance fitness of -0.176 ± 0.055.
Substance “NEDD4-like E3 ubiquitin-protein ligase WWP2 Y454A, O00308” has an abundance fitness of -0.036 ± 0.056.
“NEDD4-like E3 ubiquitin-protein ligase WWP2 L446K, O00308” showed an abundance fitness of -0.688 ± 0.094.
“NEDD4-like E3 ubiquitin-protein ligase WWP2 T455M, O00308” showed an abundance fitness of -0.415 ± 0.066.
Work on “NEDD4-like E3 ubiquitin-protein ligase WWP2 S456V, O00308” yielded an abundance fitness of -0.208 ± 0.059.
“NEDD4-like E3 ubiquitin-protein ligase WWP2 G482C, O00308” gave an abundance fitness of -0.15 ± 0.062.
With “NEDD4-like E3 ubiquitin-protein ligase WWP2 P477L, O00308” the abundance fitness was -0.038 ± 0.034.
Work on “NEDD4-like E3 ubiquitin-protein ligase WWP2 D492G, O00308” yielded an abundance fitness of -0.158 ± 0.051.
Substance “NEDD4-like E3 ubiquitin-protein ligase WWP2 M452T, O00308” has an abundance fitness of -0.017 ± 0.033.
Work on “NEDD4-like E3 ubiquitin-protein ligase WWP2 T469E, O00308” yielded an abundance fitness of -0.228 ± 0.034.
“NEDD4-like E3 ubiquitin-protein ligase WWP2 Q442F, O00308” gave an abundance fitness of 0.128 ± 0.059.
With “NEDD4-like E3 ubiquitin-protein ligase WWP2 L446P, O00308” the abundance fitness was -0.394 ± 0.083.
Substance “NEDD4-like E3 ubiquitin-protein ligase WWP2 S481V, O00308” has an abundance fitness of -0.151 ± 0.056.
Substance “NEDD4-like E3 ubiquitin-protein ligase WWP2 T483Y, O00308” has an abundance fitness of -0.123 ± 0.059.
“NEDD4-like E3 ubiquitin-protein ligase WWP2 F462L, O00308” showed an abundance fitness of -0.9 ± 0.061.
With “NEDD4-like E3 ubiquitin-protein ligase WWP2 S456H, O00308” the abundance fitness was 0.346 ± 0.096.
Work on “NEDD4-like E3 ubiquitin-protein ligase WWP2 M452I, O00308” yielded an abundance fitness of -0.001 ± 0.053.
“NEDD4-like E3 ubiquitin-protein ligase WWP2 P448T, O00308” showed an abundance fitness of 0.001 ± 0.05.
With “NEDD4-like E3 ubiquitin-protein ligase WWP2 Y454N, O00308” the abundance fitness was -0.121 ± 0.077.
“NEDD4-like E3 ubiquitin-protein ligase WWP2 G458N, O00308” showed an abundance fitness of -0.308 ± 0.093.
For “NEDD4-like E3 ubiquitin-protein ligase WWP2 Q442M, O00308”, the abundance fitness was 0.038 ± 0.078.
Substance “NEDD4-like E3 ubiquitin-protein ligase WWP2 P477F, O00308” has an abundance fitness of -0.091 ± 0.073.
For “NEDD4-like E3 ubiquitin-protein ligase WWP2 G458I, O00308”, the abundance fitness was -1.18 ± 0.19.
